From publication doi:10.1101/2023.02.02.526371 (bioRxiv, 2023)

Molecular target: T1, recombinant PIF3-GST (Arabidopsis thaliana, UniProt O80536 1-524)
T1 sequence (looked up): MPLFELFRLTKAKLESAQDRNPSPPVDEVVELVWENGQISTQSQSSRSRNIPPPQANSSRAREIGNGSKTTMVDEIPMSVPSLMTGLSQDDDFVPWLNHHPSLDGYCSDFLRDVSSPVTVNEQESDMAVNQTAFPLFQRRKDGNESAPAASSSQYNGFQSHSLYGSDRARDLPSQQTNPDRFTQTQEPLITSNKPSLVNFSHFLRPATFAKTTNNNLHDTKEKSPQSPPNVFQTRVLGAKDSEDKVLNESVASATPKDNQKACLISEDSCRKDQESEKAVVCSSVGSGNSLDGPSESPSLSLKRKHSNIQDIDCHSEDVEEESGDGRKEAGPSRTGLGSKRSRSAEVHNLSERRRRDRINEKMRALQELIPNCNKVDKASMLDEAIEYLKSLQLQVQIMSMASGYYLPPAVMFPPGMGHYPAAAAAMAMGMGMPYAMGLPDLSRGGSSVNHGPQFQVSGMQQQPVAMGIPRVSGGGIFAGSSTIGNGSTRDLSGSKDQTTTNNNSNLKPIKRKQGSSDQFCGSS
Test: pull-down

binding result: binds
B1: His-tagged kinase domain of FER (518-816 amino acids, FER-KD) (domain or fragment)
chain: not shown
